The target of assay [1] is cyno DLL4-his (cynomolgus monkey). Briefly: ELISA on DLL4-his. In general terms: In an ELISA, binding on a coated surface is turned into a signal by an enzyme label.
Assay [2] deals with cynomolgus monkey DLL4 extracellular domain (cynomolgus monkey). Briefly: Biacore SPR.
The target is the same in assay [3]. Briefly: Biacore SPR. This is another data set of the same source. (SPR reads the build-up and loss of mass on a sensor chip optically.)
The target in assay [4] is cyno DLL4-his (cynomolgus monkey). Briefly: ELISA on DLL4-his. This is another data set of the same source.

The term EC50 denotes the concentration giving half of the maximal effect. A word on the Kd: it is a measure of binding affinity in units of concentration.

Read-outs that look alike come from different tables or passages of the source.

B1: E9.1 (antibody, human IgG1, V domains shown)
VH: EVQLQESGPGLVKPSETLSLTCTVSGGSISSSSYYWGWIRQPPGKGLEWIGDIYYTGSTYYNPSLKSRVTISVDTSKNQFSLKLSSVTAADTAVYYCAREDVILRGGSDYWGQGTLVTVSS
VL: SYELTQPPSVSVSPGQTASITCSGQRLGDKYASWYQQKPGQSPVLVIYEDSKRPSGIPERFSGSNSGDTATLTISGTQPMDEADYYCQAWDRDTGVFGYGTRVTVLG
Turning to B1, the values for the EC50 in assay [1] and in assay [4] were 0.035 nM and 0.24 nM, respectively. Besides, the Kd in assay [2] was 0.47 nM; in assay [3], 4.08 nM.

B2: E9-FR2 (antibody, V domains shown)
VH: EVTLRESGPALVKPTQTLTLTCTVSGGSISSSSYYWGWIRQPPGKGLEWIGDIYYTGSTYYNPSLKSRVTISVDTSKNQFVLTMTNMDPVDTATYYCAREDVILRGGSDYWGQGTTVTVSS
VL: DYVLTQSPDSLAVSLGERATINCSGQRLGDKYASWYQQKPGQSPKLVIYEDSKRPSGIPDRFSGSNSGDDATLTISSLQAEDVAVYYCQAWDRDTGVFGGGTKVEIKR
B2 returned a half-maximal effective concentration (EC50) in assay [1] of 0.12 nM. The molecule also displayed an equilibrium dissociation constant (Kd) in assay [2] of 0.3 nM.

The values are drawn from patent US20200255508A1.
